Measurements as given in patent US20250195629A1, “SITE-SPECIFIC BRAIN THERAPEUTICS” (William Marsh Rice University, priority 2023, published 2025).
Where two headings read alike, the source gives them in different places.

Tests used:
[1] = tested on: dopamine receptor D1+ or D2+ expressing cells in the CPu; type: in vivo, mouse
Method: c-Fos activation with engineered AADC—Three groups of mice underwent FUS-BBBO procedure to target a single site at left striatum immediately after intravenous injection of recombinant protein AADC-IKVAV (SEQ ID NO: 23) (20 mg/mL, 250 mg/kg) or equivalent volume of PBS buffer (n=5 mice for FUS alone+L-DOPA group). After 48 h, the mice were given a single dose of L-DOPA (0.1 mg/mL, 2 mg/kg, i.p.; Spectrum Chemical) 10 min after injection of carbidopa (1 mg/mL, 25 mg/kg, i.p.; Sigma-Aldrich), both of which were dissolved in sterile saline containing 2.5 and 0.125 mg/mL ascorbic acid. […] After 2 hours, the mice were euthanized by transcardial perfusion, and their brains were extracted and sliced into 50 μm coronal sections following 24-48 hours of fixation.
The section displaying the strongest AADC fluorescence was selected as the representative for each mouse, and its adjacent section was stained separately to identify c-Fos and dopamine receptor D1 and D2 positive cells. The procedure was carried out as follows: (1) block sections in 10% normal goat serum (SouthernBiotech) and 0.3% Triton-X solution in PBS for 1 h at room temperature; (2) incubate with primary rabbit anti-c-Fos (1:2000, 2250S, Cell Signaling Technology) antibody in PBS with 0.3% Triton-X for 2 h at room temperature; (3) after washing three times in PBS (15 min each, the same as below), incubate with primary rat anti-D1 Dopamine Receptor (1:500, D2944, MilliporeSigma) and Guinea pig anti-Dopamine Receptor D2 (1:500, Cat. #376 205, Synaptic Systems) antibodies in 5% normal goat serum and 0.3% Triton-X solution in PBS overnight at 4° C.; (4) after washing three times, incubate with secondary goat anti-rabbit antibody conjugated to Alexa Fluor 647 (1:500, A-21245, ThermoFisher) in PBS with 0.3% Triton-X for 2 h at room temperature; (5) after washing three times, incubate with secondary goat anti-rat antibody conjugated to Alexa Fluor 546 (1:500, A-11081, ThermoFisher) and goat anti-Guinea Pig antibody conjugated to Alexa Fluor 488 (1:500, A-11073, ThermoFisher) in 5% normal goat serum and 0.3% Triton-X solution in PBS for 2 h at room temperature; (6) after washing three times, mount sections onto glass slides using the mounting media (Vector Laboratories) with DAPI and air-dry overnight in dark before imaging.
Within the left striatum region, a specific 5×9 binned rectangle area was selected corresponding to the highest observed AADC fluorescence in the adjacent AADC-stained section. Subsequently, images were captured of these areas using a 40× objective. The corresponding contralateral areas in the right striatum were also imaged.
(§1) In FIG. 7, we applied the following brightness (white) thresholds for the corresponding channels: 6045 (DAPI, nuclei, not shown), 15,000 (Cy3, D1R), 16,000 (green, D2R), and 6045 (far-red, c-Fos), with a gamma value of 1. In FIG. 11, we applied a Brightness (White) threshold of 6045 for both DAPI (nuclei, not shown) and far-red (c-Fos) channels, with a Gamma value of 1. The images were then overlayed, and the c-Fos+ cells were manually counted. Similarly, the GFAP+ cells were manually counted, as shown in FIG. 15c and FIG. 17, by applying a Brightness (White) threshold of 5686 and a Gamma value of 1 for both the DAPI (nuclei) and far-red (GFAP, purple) channels.
To manually count the c-Fos-positive cells in FIG. 7, three scorers (Z. H., S. N., and R. J.) independently assessed all c-Fos staining sites. R. J. served as the blinded scorer, and the averaged counts from all three scorers were rounded for the final statistical analysis.

[2] = tested on: c-Fos+ cells in the CPu; experiment: c-Fos+ cell count at the CPu after behavior test; type: in vivo, mouse
Source text: To quantify the c-Fos-positive cells related to FIG. 11, the stained coronal sections were initially imaged using a 4× objective in DAPI (nuclei, not shown) and far-red (c-Fos, shown in purple) channels. Within the left striatum region, one or more specific 3×3 binned square areas were selected corresponding to the highest observed AADC fluorescence in the adjacent AADC-stained section. Subsequently, images of these areas were captured using a 40× objective. Corresponding contralateral areas in the right striatum were also captured.
as §1
To address potential bias and validate our counting approach, all c-Fos staining sites from mice in FIG. 11 were independently counted by 4 scorers (A. M., Z. H., C. H. and R. J.). C. […]

With N[C@@H](Cc1ccc(O)c(O)c1)C(=O)O [L-DOPA, reference compound] the “c-Fos+ cells expressing D1+ or D2+, FUS-targeted region vs contralateral site” value ([1]; FUS alone + L-DOPA 2 mg/kg i.p., no enzyme) was “No significant change”, the “c-Fos+ cells with no expression of D1+ or D2+ in vicinity of CPu, FUS-targeted vs contralateral” value ([1]; FUS-BBBO only without AADC-IKVAV (FUS alone+L-DOPA)) was “no significant changes” and the “change in ipsilateral c-Fos-positive cells vs contralateral site” value ([2]; untreated mice or FUS alone, L-DOPA 2 mg/kg i.p.) was “no significant changes”.

B1: AADC-IKVAV: aromatic-L-amino-acid decarboxylase (AADC) protein fused with short peptide IKVAV (SEQ ID NO: 23); CDS SEQ ID NO: 21 (protein)
chain: MRGSHHHHHHGMASMTGGQQMGRDLYDDDDKDPMNASEFRRRGKEMVDYMANYMEGIEGRQVYPDVEPGYLRPLIPAAAPQEPDTFEDIINDVEKIIMPGVTHWHSPYFFAYFPTASSYPAMLADMLCGAIGCIGFSWAASPACTELETVMMDWLGKMLELPKAFLNEKAGEGGGVIQGSASEATLVALLAARTKVIHRLQAASPELTQAAIMEKLVAYSSDQAHSSVERAGLIGGVKLKAIPSDGNFAMRASALQEALERDKAAGLIPFFMVATLGTTTCCSFDNLLEVGPICNKEDIWLHVDAAYAGSAFICPEFRHLLNGVEFADSFNFNPHKWLLVNFDCSAMWVKKRTDLTGAFRLDPTYLKHSHQDSGLITDYRHWQIPLGRRFRSLKMWFVFRMYGVKGLQAYIRKHVQLSHEFESLVRQDPRFEICVEVILGLVCFRLKGSNKVNEALLQRINSAKKIHLVPCHLRDKFVLRFAICSRTVESAHVQRAWEHIKELAADVLRAEREGGSGSSGGSGGSGGSGIKVAV
modifications: misc_feature 1..1602 Synthetic: AADC-IKVAV
In the case of B1, the “c-Fos+ cells expressing D1+ or D2+, FUS-targeted region vs contralateral site” value ([1]; FUS+AADC-IKVAV 250 mg/kg i.v., L-DOPA 2 mg/kg i.p. after 48 h, perfused 2 h later) is reported as 6.6 (±1.7) fold, the “c-Fos+ cells with no expression of D1+ or D2+ in vicinity of CPu, FUS-targeted vs contralateral” value ([1]; FUS+AADC-IKVAV alone) is reported as “no statistically significant changes” and the “c-Fos+ cells expressing D1+ or D2+, FUS-targeted region vs contralateral site” value ([1]; FUS+AADC-IKVAV without L-DOPA) is reported as “No significant change”. The “c-Fos+ cells with no expression of D1+ or D2+ in vicinity of CPu, FUS-targeted vs contralateral” value ([1]; FUS+AADC-IKVAV+L-DOPA) was “no statistically significant changes” and the “increase in ipsilateral c-Fos-positive cells vs contralateral site” value ([2]; RAID-treated mice, FUS+AADC-IKVAV+L-DOPA, counted by A. M. and Z. H.) was 5.7(±1.8) fold.
